The results in this text go back to publication PMC11670252, “Antibody-mediated clearance of an ER-resident aggregate that causes glaucoma” (PNAS Nexus, 2024).

The target in this experiment is T1, endogenous full-length myocilin from conditioned media of primary human TM cells (Homo sapiens, UniProt Q99972).
T1 construct: myocilin, human, endogenous, secreted into the medium; called full-length (~55 kDa); also called endogenous full-length myocilin (~55 kDa)
The experiment is described as follows: immunoprecipitation; antibodies incubated with 15 mL conditioned medium of primary human TM cells without enrichment, or HBS buffer as control; myocilin found by Western blot. The settings on record: one partner purified. (In general: Immunoblotting shows a protein as a band on a membrane.)

T1 sequence (Q99972 33-504): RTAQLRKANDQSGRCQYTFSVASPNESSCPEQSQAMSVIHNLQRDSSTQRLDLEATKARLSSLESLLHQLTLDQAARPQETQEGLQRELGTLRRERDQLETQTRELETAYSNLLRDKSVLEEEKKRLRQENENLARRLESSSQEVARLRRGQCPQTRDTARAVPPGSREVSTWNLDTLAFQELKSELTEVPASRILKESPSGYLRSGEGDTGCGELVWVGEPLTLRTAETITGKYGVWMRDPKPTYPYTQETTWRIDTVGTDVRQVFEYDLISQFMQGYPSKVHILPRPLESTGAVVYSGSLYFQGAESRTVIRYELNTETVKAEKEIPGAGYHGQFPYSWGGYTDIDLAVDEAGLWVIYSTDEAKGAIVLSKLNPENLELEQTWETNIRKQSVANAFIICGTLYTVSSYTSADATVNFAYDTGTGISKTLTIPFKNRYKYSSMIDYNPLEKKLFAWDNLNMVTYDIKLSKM

B1: anti-OLF1 chimeric IgG (murine variable domains, human IgG1/kappa constant domains) (antibody, V domains shown)
VH: QVQLQQSGPELVKPGASVKISCKTSGYTFTENTMHWVRQSHGKSLEWIGGIHPNNIGSTYNQKFKGKATLTVDKSSSTAYMELRSLTSEDSAVYYCTRGATAPFAYWGQGTLVTVSA
VL: DIVMTQTPLSLPVSLGDQASISCRSSQSIVHSNGNTYLHWYQQKSGQSPKLLIYKVSNRFSGVPDRFSGSGSGTDFTLKISRVEAEDLGVYFCSQSTHVPPTFGGGTKLEIK
In the case of B1, the binding result is given as “binds”.
